{"source": "patent US20130150294A1", "about": "(UNIVERSITY OF TOLEDO, published 2013)", "key": {"[1]": {"target": "T1, Src of LLC-PK1 cells (endogenous) (pig, UniProt K7GM45 2-548)", "T1 construct": "Species from the cell line (pig kidney proximal LLC-PK1); also called Src from the LLC-PK1 cell lysates; Src in TCN23-19 and PY-17 cells (clones of LLC-PK1)", "assay": "GST pulldown from cell lysates, Western blot"}, "[2]": {"target": "purified pig kidney Na+/K+-ATPase (PKE) (pig, UniProt P05024 6-1021; P05027 1-303)", "assay": "in vitro binding assay with GST-tagged Src truncations and purified Na+/K+-ATPase"}}}
{"binder": "GST-SERCA-CD3 (other, also called GST-CD3 from rat heart sarcoplasmic reticulum Ca2+-ATPase 2a) GTRRMAKKNAIVRSLPSVETLGCTSVICSDKTGTLTTNQMSVCRMFILDKVEGDTCSLNEFTITGSTYAPIGEVQKDDKPVKCHQYDGLVELATICALCNDSALDYNEAKGVYEKVGEATETALTCLVEKMNVFDTELKGLSKIERANACNSVIKQLMKKEFTLEFSRDRKSMSVYCTPNKPSRTSMSKMFVKGAPEGVIDRCTHIRVGSTKVPMTPGVKQKIMSVIREWGSGSDTLRCLALATHDNPLRREEMHLEDSANFIKYETNLTFVGCVGMLDPPRIEVASSVKLCRQAGIRVIMITGDNKGTAVAICRRIGIFGQDEDVTSKAFTGREFDELSPSAQRDACLNARCFARVEPSHKSKIVEFLQSFDEITAMTGDGVNDAPALKKSEIGIAMGSGTAVAKTASEMVLADDNFSTIVAAVEEGRAIYNNMKQFIRYLISSNV", "values": [{"measurement": "binding result", "setting": "[1]", "result": "no binding (tested: 1 mg LLC-PK1 cell lysates)"}]}
{"binder": "GST-KD1 of Src (other, also called GST-tagged Src truncation; not shown: glutathione S-transferase (GST) fusion tag) LRLEVKLGQGCFGEVWMGTWNGTTRVAIKTLKPGTMSPEAFLQEAQVMKKLRHE", "values": [{"measurement": "binding result", "setting": "[2]", "result": "binds"}]}
